# T1: CD40 cys1B mouse: Human CD40 with mouse module B of domain 1 (38-59) (human; mouse, UniProt P25942 21-277)
# T1 construct: Human/mouse chimera on FreeStyle 293-F cells; Human flanks inferred from the printed mouse range
# T1 chain: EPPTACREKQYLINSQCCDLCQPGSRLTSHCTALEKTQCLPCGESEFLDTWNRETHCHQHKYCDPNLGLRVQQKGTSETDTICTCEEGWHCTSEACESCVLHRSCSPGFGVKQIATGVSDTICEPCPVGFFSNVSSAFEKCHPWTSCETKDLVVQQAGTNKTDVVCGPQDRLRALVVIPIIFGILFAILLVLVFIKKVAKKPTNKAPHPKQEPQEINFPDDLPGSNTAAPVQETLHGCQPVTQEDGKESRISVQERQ
# T2: CD40 cys3B mouse: Human CD40 with mouse module B of domain 3 (122-143) (human; mouse, UniProt P25942 21-277)
# T2 construct: Human/mouse chimera on FreeStyle 293-F cells; Human flanks inferred from the printed mouse range
# T2 chain: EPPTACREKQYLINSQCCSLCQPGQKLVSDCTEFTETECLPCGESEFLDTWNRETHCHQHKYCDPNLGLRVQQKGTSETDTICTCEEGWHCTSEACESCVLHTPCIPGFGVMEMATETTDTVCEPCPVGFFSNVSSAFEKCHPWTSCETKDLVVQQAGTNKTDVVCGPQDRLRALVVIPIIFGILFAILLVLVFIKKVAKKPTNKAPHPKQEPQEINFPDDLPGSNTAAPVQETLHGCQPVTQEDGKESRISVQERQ
# T3: CD40 cys2A mouse: Human CD40 with mouse module A of domain 2 (62-77) (human; mouse, UniProt P25942 21-277)
# T3 construct: Human/mouse chimera on FreeStyle 293-F cells; Human flanks inferred from the printed mouse range
# T3 chain: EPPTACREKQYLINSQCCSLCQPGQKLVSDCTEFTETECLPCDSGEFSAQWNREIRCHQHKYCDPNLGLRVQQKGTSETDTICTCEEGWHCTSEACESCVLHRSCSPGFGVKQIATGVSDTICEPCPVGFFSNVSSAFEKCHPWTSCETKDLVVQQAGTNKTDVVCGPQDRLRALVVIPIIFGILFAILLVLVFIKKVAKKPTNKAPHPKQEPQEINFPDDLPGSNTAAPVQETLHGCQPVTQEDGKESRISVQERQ
# What was measured:
# [1] = molecular target: T4, human CD40 (human, UniProt P25942 21-277); experiment: cell-based or functional assay
# [2] = molecular target: T5, CD40hfc (R&Dsystems, USA) (human, UniProt P25942 21-193); experiment: SPR Biacore 3000, CD40hfc immobilized on CM5, antibody as analyte, 1:1 Langmuir
# T5 construct: Bought reagent, amine-coupled to a CM5 chip; not shown: Fc part of the bought fusion protein
# Experimental: (§1) The affinity constants of purified antibodies were assessed by surface plasmon resonance using the Biacore 3000 instrument according to manufacturer's protocols. CD40hfc (R&Dsystems, USA) was immobilized to the BIAcore sensorchip, CM5, using conventional amine coupling. Association was followed for 3 minutes and dissociation for 12 minutes. Regeneration was performed twice using 50 mM NaOH for 30 seconds. The kinetic parameters and the affinity constants were calculated using BIAevaluation 4.1 software. The CD40 antibody clones were run over the sensor at a flow rate of 30 μl/min in HBS-P (GE, BR-1003-68) at concentration ranges between 1-100 or 1-300 nM and analyzed using 1:1 Langmuir with drifting baseline.
# [3] = molecular target: T4, human CD40; experiment: cell-based or functional assay; remark: listed apart in the source
# [4] = molecular target: T6, Fc-fused CD40 (Ancell, #504-820) (human, UniProt P25942 21-193); experiment: CD40 binding ELISA (summary table, Example 3)
# T6 construct: Bought reagent; not shown: Fc part of the bought fusion protein
# Experimental: (§2) Purified full IgG molecules were analysed with ELISA. High binding flat bottom LIA plates (Greiner #655074) were coated with Fc-fused CD40 (Ancell, #504-820) at 0.05 μg/ml, and milk powder were used at 3% for blocking and at 1% for dilution. The antibodies to be tested were added in serial dilutions starting at 50 μg/ml and detection was carried out using HRP conjugated goat anti human Ig-Fc (Jackson ImmunoResearch, #109-035-098) and Super Signal Pico Chemiluminescent (ThermoScientific, #37069) was used as substrate.
# [5] = molecular target: T1, CD40 cys1B mouse: Human CD40 with mouse …; experiment: flow cytometry on 293-F cells transfected with the chimera; MFI scored + or -
# Description: (§3) Genes of CD40 human/mouse chimeras were synthesized (GenScript). The different chimeras were designed by exchanging domains or modules of the human CD40 with corresponding mouse CD40 domains or modules. The chimeras were designed after evaluation of the human and mouse sequences and 3D analysis of human CD40. The constructs were cloned into pcDNA3.1 vector (Invitrogen) using the restriction sites for NotI and HindIII. The mouse/human chimeras were transiently transfected into FreeStyle 293-F cells (Invitrogen), incubated 48 hours in FreeStyle 293 expression medium (Invitrogen) 37C, 8% CO2, 135 rpm.
# (§4) Cells were analyzed with FACS Verse (BD Biosciences). Binding to the different chimeric constructs were determined with MFI to be either positive (+) or negative (−).
# [6] = molecular target: T2, CD40 cys3B mouse: Human CD40 with mouse …; experiment: as above
# Description: as §3, §4
# [7] = molecular target: T3, CD40 cys2A mouse: Human CD40 with mouse …; experiment: as above
# Description: as §3, §4
# [8] = molecular target: T6, Fc-fused CD40 (Ancell, #504-820); experiment: ELISA, coated Fc-fused CD40, full IgG
# Experimental: as §2
# [9] = molecular target: T5, CD40hfc (R&Dsystems, USA); experiment: SPR Biacore 3000, CD40hfc immobilized (summary table, Example 6)
# Experimental: as §1
# [10] = molecular target: T7, murine CD40 (mouse, UniProt P27512 20-193, limits assumed); experiment: chimeric domain mapping, flow cytometry
# T7 construct: How murine CD40 was presented in the assay is not described; also called mouse CD40
# Description: as §3, §4
# T7 sequence (P27512 20-193 limits assumed): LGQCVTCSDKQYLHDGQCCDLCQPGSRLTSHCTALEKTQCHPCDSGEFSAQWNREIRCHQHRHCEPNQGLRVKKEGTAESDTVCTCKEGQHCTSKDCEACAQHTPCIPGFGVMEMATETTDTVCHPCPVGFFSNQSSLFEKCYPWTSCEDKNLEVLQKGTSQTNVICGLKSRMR
binder,measurement,setting,value
"antibody 1150/1151 (antibody, V domains shown) VH: EVQLLESGGGLVQPGGSLRLSCAASGFTFSSYAMSWVRQAPGKGLEWVSGIGGSSSYTSYADSVKGRFTISRDNSKNTLYLQMNSLRAEDTAVYYCARYYSYHMDYWGQGTLVTVSS VL: DIQMTQSPSSLSASVGDHVTITCRASQSISSYLNWYQQKPGKAPKLLIYAASSLQSGVPSRFSGSGSGTDFTLTISSLQPEDFATYYCQQYGSAPPTFGQGTKLEIK",B cell proliferation (see Example 3),[1],0.9
same,DC activation (index: IL-12p40 with antibody divided by IL-12p40 with isotype control),[1],7.8 index
same,Kd,[2],1.5 nM
same,koff,[2],0.0034 s⁻¹
same,kon,[2],2.2e+06 M⁻¹ s⁻¹
same,Potency B cell proliferation (EC50),[3],0.9 µg/mL
same,EC50,[4],0.041 µg/mL
same,binding result,[5],no binding
same,binding result,[6],binds
same,binding result,[7],binds
same,EC50,[8],0.041 µg/mL
same,Kd,[9],1.5 nM
same,koff,[9],0.0034 s⁻¹
same,kon,[9],2.2e+06 M⁻¹ s⁻¹
same,binding result,[10],no binding
"antibody 1146/1147 (antibody, V domains shown, Re-cloned from scFv into full IgG format, made in 293 Freestyle cells) VH: not shown VL: DIQMTQSPSSLSASVGDRVTITCRASQSISSYLNWYQQKPGKAPKLLIYAASSLQSGVPSRFSGSGSGTDFTLTISSLQPEDFATYYCQQYYYYPFTFGQGTKLEIK",B cell proliferation (see Example 3),[1],3.6
same,Potency B cell proliferation (EC50),[3],3.6 µg/mL
same,EC50,[4],0.58 µg/mL
same,EC50,[8],0.58 µg/mL
"antibody 1107/1108 (antibody, V domains shown, Re-cloned from scFv into full IgG format, made in 293 Freestyle cells) VH: not shown VL: DIQMTQSPSSLSASVGDRVTITCRASQSISSYLNWYQQKPGKAPKLLIYAASSLQSGVPSRFSGSGSGTDFTLTISSLQPEDFATYYCQQYGVYPFTFGQGTKLEIK",B cell proliferation (see Example 3),[1],0.7
same,DC activation (index: IL-12p40 with antibody divided by IL-12p40 with isotype control),[1],22.3 index
same,Kd,[2],1.3 nM
same,koff,[2],0.0013 s⁻¹
same,kon,[2],1e+06 M⁻¹ s⁻¹
same,Potency B cell proliferation (EC50),[3],0.7 µg/mL
same,EC50,[4],0.034 µg/mL
same,binding result,[5],binds
same,binding result,[6],binds
same,binding result,[7],no binding
same,EC50,[8],0.034 µg/mL
same,Kd,[9],1.3 nM
same,koff,[9],0.0013 s⁻¹
same,kon,[9],1e+06 M⁻¹ s⁻¹
same,binding result,[10],no binding
"antibody 1148/1149 (antibody, V domains shown, Re-cloned from scFv into full IgG format, made in 293 Freestyle cells) VH: not shown VL: DIQMTQSPSSLSASVGDRVTITCRASQSISSYLNWYQQKPGKAPKLLIYAASSLQSGVPSRFSGSGSGTDFTLTISSLQPEDFATYYCQQAYYFPHTFGQGTKLEIK",B cell proliferation (see Example 3),[1],2.3
same,Potency B cell proliferation (EC50),[3],2.3 µg/mL
same,EC50,[4],2.2 µg/mL
same,EC50,[8],2.2 µg/mL
"antibody 1132/1133 (antibody, V domains shown, Re-cloned from scFv into full IgG format, made in 293 Freestyle cells) VH: EVQLLESGGGLVQPGGSLRLSCAASGFTFSSYAMSWVRQAPGKGLEWVSGIGSYGGGTYYADSVKGRFTISRDNSKNTLYLQMNSLRAEDTAVYYCARYVNFGMDYWGQGTLVTVSS VL: DIQMTQSPSSLSASVGDRVTITCRASQSISSYLNWYQQKPGKAPKLLIYAASSLQSGVPSRFSGSGSGTDFTLTISSLQPEDFATYYCQQYGRNPPTFGQGTKLEIK",B cell proliferation (see Example 3),[1],2.2
same,DC activation (index: IL-12p40 with antibody divided by IL-12p40 with isotype control),[1],10.8 index
same,Kd,[2],2.4 nM
same,koff,[2],0.0081 s⁻¹
same,kon,[2],3.4e+06 M⁻¹ s⁻¹
same,Potency B cell proliferation (EC50),[3],2.2 µg/mL
same,EC50,[4],0.28 µg/mL
same,binding result,[5],no binding
same,binding result,[6],binds
same,binding result,[7],binds
same,EC50,[8],0.28 µg/mL
same,Kd,[9],2.4 nM
same,koff,[9],0.0081 s⁻¹
same,kon,[9],3.4e+06 M⁻¹ s⁻¹
same,binding result,[10],no binding
"antibody 1136/1137 (antibody, V domains shown, Re-cloned from scFv into full IgG format, made in 293 Freestyle cells) VH: not shown VL: DIQMTQSPSSLSASVGDRVTITCRASQSISSYLNWYQQKPGKAPKLLIYAASSLQSGVPSRFSGSGSGTDFTLTISSLQPEDFATYYCQQAYYAGLFTFGQGTKLEIK",B cell proliferation,[1],1
same,Kd,[2],11 nM
same,koff,[2],0.0095 s⁻¹
same,kon,[2],870000 M⁻¹ s⁻¹
same,Potency B cell proliferation (EC50),[3],1 µg/mL
same,EC50,[4],1.4 µg/mL
same,EC50,[8],1.4 µg/mL
same,Kd,[9],11 nM
same,koff,[9],0.0095 s⁻¹
same,kon,[9],900000 M⁻¹ s⁻¹
"antibody 1134/1135 (antibody, V domains shown, Re-cloned from scFv into full IgG format, made in 293 Freestyle cells) VH: EVQLLESGGGLVQPGGSLRLSCAASGFTFSSYAMSWVRQAPGKGLEWVSSIYSGGGGTSYADSVKGRFTISRDNSKNTLYLQMNSLRAEDTAVYYCARGPAYSSFFDYWGQGTLVTVSS VL: not shown",B cell proliferation,[1],1
same,Kd,[2],3.4 nM
same,koff,[2],0.0014 s⁻¹
same,kon,[2],400000 M⁻¹ s⁻¹
same,Potency B cell proliferation (EC50),[3],1 µg/mL
same,EC50,[4],0.025 µg/mL
same,EC50,[8],0.025 µg/mL
same,Kd,[9],3.4 nM
same,koff,[9],0.0014 s⁻¹
same,kon,[9],400000 M⁻¹ s⁻¹
